Measurements from patent publication US20120245099A1, “APOPTOSIS INDUCER” (NIHON UNIVERSITY, priority 2009, published 2012).

What was measured:
Format in all cases: cell-based
Cos cells [1] = assay: Del-1 gene transfer into cultured Cos cells, H33342 nuclear staining, phase contrast and fluorescent microscopy (Example 1); conditions: 24 hours after gene transfer of cDNA in pcDNA3
Protocol: cDNA for full-length Del-1 (SEQ ID NO: 4) was integrated into an expression vector, pcDNA3 (Invitrogen), and then introduced into cultured Cos cells. As a control, pcDNA3 free from the cDNA for full-length Del-1 was used. At 24 hours after gene transfer, the cells were stained with H33342 (Hoechst) for cell nuclear staining and observed under a phase contrast microscope (transmission image) and a fluorescent microscope (H33342).

Cos cells [2] = assay: Del-1 gene transfer into cultured Cos cells, chromosomal DNA electrophoresis and silver staining (Example 2); conditions: Cos cells forced to express Del-1 (pcDNA3)
Source text: cDNA for full-length Del-1 (SEQ ID NO: 4) was integrated into an expression vector, pcDNA3 (Invitrogen), and then introduced into cultured Cos cells. As a control, pcDNA3 free from the cDNA for full-length Del-1 was used. For normalization of the gene transfer rate, DNA carrying the LacZ gene was also introduced simultaneously. The results obtained are shown in FIG. 2 (left and right panels).
Left panel: Chromosomal DNAs were taken from the cells and electrophoresed on a polyacrylamide gel, followed by silver staining.

Cos cells [3] = assay: Del-1 gene transfer into cultured Cos cells, H33342 and C3-annexin V staining (Example 3); conditions: 24 hours after gene transfer
Protocol: cDNA for full-length Del-1 (SEQ ID NO: 4) was integrated into an expression vector and then introduced into cultured Cos cells. At 24 hours after gene transfer, the cells were stained with H33342 and with C3-annexin V (annexin V conjugated with the fluorescent dye C3) and then observed under a fluorescent microscope.
It should be noted that annexin V is capable of binding to phosphatidylserine, a component of cell membranes, while phosphatidylserine is known to leak (to be localized) outside of the cell membrane when the cells undergo apoptosis.

Cos cells [4] = assay: eGFP-Del-1 expression vector in cultured Cos cells, H33342 staining (Example 4); conditions: expressed as eGFP-Del-1 fusion protein, 24 hours after gene transfer
Protocol: An expression vector designed to carry cDNA encoding eGFP-Del-1 (a fusion protein between eGFP and full-length Del-1) was introduced into cultured Cos cells. At 24 hours after gene transfer, the cells were fixed and stained with H33342.
This would mean that Del-1 secreted from the cells receiving Del-1 gene transfer would also act on their adjacent cells to thereby induce apoptosis in these cells.

[5] = system: CRL cells (human melanoma cells); assay: AP-Del-1 conditioned medium added to cells, H33342 and C3-annexin V staining (Example 5); conditions: conditioned medium of Cos cells with AP fusion protein, 24 hours after addition
Protocol: (§1) cDNA for full-length Del-1 (SEQ ID NO: 4) was integrated into an alkaline phosphatase (AP) expression vector (APtag4) and then introduced into cultured Cos cells. As a control, an AP expression vector free from the cDNA for full-length Del-1 was used. The resulting culture supernatant was measured for AP activity, normalized for AP fusion protein concentration and then added to a culture of CRL cells (human melanoma cells) or P5 cells (vascular endothelial cell line) (instead of using direct gene transfer, Cos cells were allowed to produce a recombinant protein and the resulting conditioned medium was used, because CRL and P5 were low in the efficiency of gene transfer). At 24 hours after addition, the cells were stained with H33342 and with C3-annexin V for observation.

[6] = system: P5 cells (vascular endothelial cell line); assay: as above; conditions: conditioned medium of Cos cells with AP fusion protein, 24 hours after addition
Protocol: as §1

[7] = system: CRL cells (human melanoma cells); assay: AP-Del-1 conditioned medium added to cells, chromosomal DNA electrophoresis and silver staining (Example 6); conditions: 24 hours after addition
Protocol: as §1, with “AP” for “alkaline phosphatase (AP)”, “addition, chromosomal DNAs were taken from” for “addition,”, “cells” for “cells were stained with H33342”, “electrophoresed on a polyacrylamide gel, followed by silver staining.” for “with C3-annexin V for observation.”

[8] = system: P5 cells (vascular endothelial cell line); assay: as above; conditions: 24 hours after addition
Protocol: as §1, with “AP” for “alkaline phosphatase (AP)”, “addition, chromosomal DNAs were taken from” for “addition,”, “cells” for “cells were stained with H33342”, “electrophoresed on a polyacrylamide gel, followed by silver staining.” for “with C3-annexin V for observation.”

Cos cells [9] = assay: LDH activity in supernatant of Cos cells transformed with cDNA for Del-1 or its parts (Example 7); conditions: APtag4 vector, medium replaced 24 hours after gene transfer, measured after further one hour
Source text: cDNA for full-length Del-1 (SEQ ID NO: 4) was integrated into an AP expression vector (APtag4) and then introduced into cultured Cos cells. Likewise, cDNA for a part of Del-1 was also integrated into APtag4 and then introduced into cultured Cos cells. As a control, an AP expression vector free from the above cDNA for full-length Del-1 or a part thereof was used. It should be noted that the members each used as a part of Del-1 were EGF-like domains in the full-length Del-1 protein, i.e., EGF1 (E1; cDNA: SEQ ID NO: 26, amino acid sequence: SEQ ID NO: 27), EGF2 (E2; cDNA: SEQ ID NO: 28, amino acid sequence: SEQ ID NO: 29) and EGF3 (E3; cDNA: SEQ ID NO: 6, amino acid sequence: SEQ ID NO: 7), a fusion protein between discoidin I-like domains, i.e., Discoidin1 and Discoidin2 (C1C2; cDNA: SEQ ID NO: 30, amino acid sequence: SEQ ID NO: 31), an amino acid substitution (D136E) mutant of the above full-length Del-1 (Del1m; cDNA: SEQ ID NO: 32, amino acid sequence: SEQ ID NO: 33), as well as an amino acid substitution (D136E) mutant of E3, i.e., E3 D136E (E3m; cDNA: SEQ ID NO: 34, amino acid sequence: SEQ ID NO: 35). […] At 24 hours after gene transfer, the medium in each case was replaced with fresh culture medium and, after further one hour, the supernatant was measured for LDH activity. A cell lysate was prepared for each case and measured for LacZ activity. […]

B1: full-length Del-1: developmentally regulated endothelial cell locus-1 protein, extracellular matrix protein, amino acid sequence SEQ ID NO: 5 (protein, listed as Mus musculus)
chain: MKHLVAAWLLVGLSLGVPQFGKGDICNPNPCENGGICLSGLADDSFSCECPEGFAGPNCSSVVEVASDEEKPTSAGPCIPNPCHNGGTCEISEAYRGDTFIGYVCKCPRGFNGIHCQHNINECEAEPCRNGGICTDLVANYSCECPGEFMGRNCQYKCSGPLGIEGGIISNQQITASSTHRALFGLRKWYPYYARLNKKGLINAWTAAENDRWPWIQINLQRKMRVTGVITQGAKRIGSPEYIKSYKIAYSNDGKTWAMYKVKGTNEEMVFRGNVDNNTPYANSFTPPIKAQYVRLYPQICRRHCTLRMELLGCELSGCSEPLGMKSGHIQDYQITASSVFRTLNMDMFTWEPRKARLDKQGKVNAWTSGHNDQSQWLQVDLLVPTKVTGIITQGAKDFGHVQFVGSYKLAYSNDGEHWMVHQDEKQRKDKVFQGNFDNDTHRKNVIDPPIYARFIRILPWSWYGRITLRSELLGCAEEE
Cos cells [1]
  chromosome aggregation (H33342 nuclear staining): chromosomes were aggregated
Cos cells [2]
  DNA ladder pattern indicative of apoptosis: ladder pattern indicative of apoptosis was observed
Cos cells [3]
  apoptosis by H33342 and C3-annexin V staining: these cells underwent apoptosis
Cos cells [4]
  apoptosis (chromosomal aggregation, H33342) in cells expressing the fusion protein: found to undergo apoptosis
[5]
  apoptosis by H33342 and C3-annexin V staining: these cells underwent apoptosis
[6]
  apoptosis by H33342 and C3-annexin V staining: these cells underwent apoptosis
[7]
  DNA ladder pattern indicative of apoptosis: ladder pattern indicative of apoptosis was observed
[8]
  DNA ladder pattern indicative of apoptosis: ladder pattern indicative of apoptosis was observed
Cos cells [9]
  increase in LDH activity of supernatant, normalized by LacZ activity: increase in LDH activity
